Data set [1] deals with PilG FL (Neisseria meningitidis MC58) (UniProt Q7DDR1). Description: EMSA. As to conditions: Optimized EMSA: 50 mM HEPES pH 7.5, 100 mM NaCl, 5 mM MgCl2, 1 mM DTT, 10% glycerol, 0.05% DDM, on ice 15 min, 0.45 nM DNA; first EMSA: 25 mM NaH2PO4 pH 8.0 ….
Data set [2] concerns the target PilG EEE39-41AAA (Neisseria meningitidis MC58, UniProt Q7DDR1 1-410, E39A;E40A;E41A). Description: South-western; increased vs FL per text; Optimized EMSA: 50 mM HEPES pH 7.5, 100 mM NaCl, 5 mM MgCl2, 1 mM DTT, 10% glycerol, 0.05% DDM, on ice 15 min, 0.45 nM DNA; first EMSA: 25 mM NaH2PO4 pH 8.0, 150 mM NaCl, 1 mM DTT, 10% glycerol, 0.05% DDM, on ice. As to conditions: protein: recombinant; tags: C-terminal 6xHis; label: 32P end label.

Data set [3] has as its target T1, PilG FL (Neisseria meningitidis MC58, UniProt Q7DDR1 1-410). Description: EMSA; optimized EMSA; R2 0.91?; Optimized EMSA: 50 mM HEPES pH 7.5, 100 mM NaCl, 5 mM MgCl2, 1 mM DTT, 10% glycerol, 0.05% DDM, on ice 15 min, 0.45 nM DNA; first EMSA: 25 mM NaH2PO4 pH 8.0, 150 mM NaCl, 1 mM DTT, 10% glycerol, 0.05% DDM, on ice. As to conditions: protein: recombinant; tags: C-terminal 6xHis; label: 32P end label.

Data set [4] addresses PilG RKK43-45AAA (Neisseria meningitidis MC58, UniProt Q7DDR1 1-410, R43A;K44A;K45A). Nature of the data set: EMSA; extrapolated; about 50% bound at 5 uM per text; Optimized EMSA: 50 mM HEPES pH 7.5, 100 mM NaCl, 5 mM MgCl2, 1 mM DTT, 10% glycerol, 0.05% DDM, on ice 15 min, 0.45 nM DNA; first EMSA: 25 mM NaH2PO4 pH 8.0, 150 mM NaCl, 1 mM DTT, 10% glycerol, 0.05% DDM, on ice. As to conditions: protein: recombinant; tags: C-terminal 6xHis; label: 32P end label.

Data set [5] has as its target PilG166-410 (Neisseria meningitidis MC58, UniProt Q7DDR1 166-410). Description: South-western; Optimized EMSA: 50 mM HEPES pH 7.5, 100 mM NaCl, 5 mM MgCl2, 1 mM DTT, 10% glycerol, 0.05% DDM, on ice 15 min, 0.45 nM DNA; first EMSA: 25 mM NaH2PO4 pH 8.0, 150 mM NaCl, 1 mM DTT, 10% glycerol, 0.05% DDM, on ice. As to conditions: protein: recombinant, tags: C-terminal 6xHis, label: 32P end label.

Data set [6] addresses PilG30-80 (Neisseria meningitidis MC58, UniProt Q7DDR1 30-80). The description is as above. As to conditions: protein: recombinant, tags: C-terminal 6xHis, label: 32P end label.
The target of data set [7] is PilG1-60 (Neisseria meningitidis MC58, UniProt Q7DDR1 1-60). The data set is described as above. As to conditions: protein: recombinant, tags: C-terminal 6xHis, label: 32P end label.
Data set [8] concerns the target PilG257-410 (Neisseria meningitidis MC58, UniProt Q7DDR1 257-410). The data set is described as above. As to conditions: protein: recombinant, tags: C-terminal 6xHis, label: 32P end label.
For data set [9], the target named is T2, PilG1-178 (Neisseria meningitidis MC58, UniProt Q7DDR1 1-178). Nature of the data set: EMSA; 5 mM MgCl2; Optimized EMSA: 50 mM HEPES pH 7.5, 100 mM NaCl, 5 mM MgCl2, 1 mM DTT, 10% glycerol, 0.05% DDM, on ice 15 min, 0.45 nM DNA; first EMSA: 25 mM NaH2PO4 pH 8.0, 150 mM NaCl, 1 mM DTT, 10% glycerol, 0.05% DDM, on ice. As to conditions: protein: recombinant; tags: C-terminal 6xHis; label: 32P end label; blunt.

The target of data set [10] is PilG SS62-63AA (Neisseria meningitidis MC58, UniProt Q7DDR1 1-410, S62A;S63A). Description: South-western; same as FL; Optimized EMSA: 50 mM HEPES pH 7.5, 100 mM NaCl, 5 mM MgCl2, 1 mM DTT, 10% glycerol, 0.05% DDM, on ice 15 min, 0.45 nM DNA; first EMSA: 25 mM NaH2PO4 pH 8.0, 150 mM NaCl, 1 mM DTT, 10% glycerol, 0.05% DDM, on ice. As to conditions: protein: recombinant; tags: C-terminal 6xHis; label: 32P end label.

In data set [11] the target is PilG Q55A (Neisseria meningitidis MC58, UniProt Q7DDR1 1-410, Q55A). The data set is described as above. As to conditions: protein: recombinant; tags: C-terminal 6xHis; label: 32P end label.
Data set [12] has as its target PilG1-256 (Neisseria meningitidis MC58, UniProt Q7DDR1 1-256). Nature of the data set: South-western; Optimized EMSA: 50 mM HEPES pH 7.5, 100 mM NaCl, 5 mM MgCl2, 1 mM DTT, 10% glycerol, 0.05% DDM, on ice 15 min, 0.45 nM DNA; first EMSA: 25 mM NaH2PO4 pH 8.0, 150 mM NaCl, 1 mM DTT, 10% glycerol, 0.05% DDM, on ice. As to conditions: protein: recombinant, tags: C-terminal 6xHis, label: 32P end label.

The target in data set [13] is PilG1-80 (Neisseria meningitidis MC58, UniProt Q7DDR1 1-80). Described as above. As to conditions: protein: recombinant, tags: C-terminal 6xHis, label: 32P end label.
Data set [14] concerns the target PilG1-140 (Neisseria meningitidis MC58, UniProt Q7DDR1 1-140). Described as above. As to conditions: protein: recombinant, tags: C-terminal 6xHis, label: 32P end label.
The target of data set [15] is T2, PilG1-178. The data set is described as above. As to conditions: protein: recombinant, tags: C-terminal 6xHis, label: 32P end label.
Data set [16] has as its target T1, PilG FL. Described as above. As to conditions: protein: recombinant, tags: C-terminal 6xHis, label: 32P end label.

Consider 52 bp dsDNA, S3 Fig, for which the Kd in data set [1] was determined as 300 nM.

B1: HH8 (ssDNA)
DNA: GTTGTTGTTGTTTTCAGACGGCATGTTGGTTCAGACGGCATTTGTTGTTGTT
For B1, the binding result in [2] is “binds”; in data set [5], “no binding”; in [6] it was “no binding”; in data set [7], “no binding”; in [8], “no binding”. For the same molecule, the “apparent K (half saturation)” value in data set [3] was 1160 nM; in data set [4] it was approximately 15.7 mM.

B2: HH10HH11 (dsDNA DUS-) (dsDNA)
DNA 1: AACAACAACAAAAGGCCTGTCATCCAACTTCCGGACAGTAAACAACAACAAC
DNA 2: GTTGTTGTTGTTTACTGTCCGGAAGTTGGATGACAGGCCTTTTGTTGTTGTT
With B2, the “apparent K (half saturation)” value in [9] amounted to 269 nM.

B3: T1 (ssDNA)
DNA: CAACAACAACAACAGCCGTCTGAACCAAATTCAGACGGCAACAACAACAACA
Take B3: the binding result in data set [2], in [10], in data set [11], in data set [12], in data set [13] and in [14] was “binds” each time. Besides, the binding result was “no binding” in data set [5]; “no binding” in data set [6]; “no binding” in data set [7]; “no binding” in data set [8]; “binds” in data set [15]; “binds” in [16].

B4: T1T2 (dsDNA)
DNA 1: B3 DNA
DNA 2: TGTTGTTGTTGTTGCCGTCTGAATTTGGTTCAGACGGCTGTTGTTGTTGTTG
Consider B4, for which the binding result in [12] (blunt) is “binds”; in data set [13] (blunt) it was “binds”; in [14] (blunt), “binds”; in data set [5] (blunt), “no binding”; in data set [6] (blunt), “no binding”; in [7] (blunt), “no binding”. For the same molecule, the values for the binding result in data set [8] (blunt), in data set [15] (blunt) and in data set [16] (blunt) were “no binding”, “binds” and “binds”, respectively.

B5: T3 (ssDNA)
DNA: CAACAACAACAACAGGCCTGTCATCCAAAATGACAGGCCAACAACAACAACA
Consider B5, for which the binding result is listed as “binds” in data set [12]; “binds” in [13]; “binds” in [14]; “no binding” in data set [5]; “no binding” in data set [6]; “no binding” in [7]. The results for the binding result in [8], in data set [15] and in data set [16] were “no binding”, “binds” and “binds”, respectively.

B6: T3T4 (dsDNA)
DNA 1: B5 DNA
DNA 2: TGTTGTTGTTGTTGGCCTGTCATTTTGGATGACAGGCCTGTTGTTGTTGTTG
For the molecule B6, the binding result is “binds” in [12] (blunt); “binds” in data set [13] (blunt); “binds” in data set [14] (blunt); “no binding” in data set [5] (blunt); “no binding” in [6] (blunt); “no binding” in data set [7] (blunt). In addition, the binding result in [8] (blunt) is given as “no binding”; in data set [15] (blunt), “binds”; in [16] (blunt) it was “binds”.
